Earlier results on 14 molecules are cited in patent US20230129812A1, “COMPOSITIONS AND METHODS FOR TREATING PULMONARY HYPERTENSION” (Acceleron Pharma Inc., priority 2020, published 2023).

One data set addresses T1, ActA (Homo sapiens, UniProt P08476).
T1 sequence (P08476 311-426): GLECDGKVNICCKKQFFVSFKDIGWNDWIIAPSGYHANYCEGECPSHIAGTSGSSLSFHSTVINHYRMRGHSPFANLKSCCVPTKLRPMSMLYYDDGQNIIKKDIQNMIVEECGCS
The arrangement: key to ActA binding relative to WT: *: No observed binding; −−: <⅕ WT binding; −: ~½ WT binding; +: WT; ++: <2x increased binding; +++: ~5x increased binding; ++++: ~10x increased binding; +++++: ~40x increased binding. Conditions: cited from earlier work; for ActA binding relative to WT: Table 11, reproduced from WO2006/012627; for ratio of activin A (ActA) binding to GDF11 binding, relative to the wild-type K74 molecule: WO2006/012627.

The target of the next data set is T2, GDF11 (Homo sapiens, UniProt O95390).
T2 sequence (O95390 299-407): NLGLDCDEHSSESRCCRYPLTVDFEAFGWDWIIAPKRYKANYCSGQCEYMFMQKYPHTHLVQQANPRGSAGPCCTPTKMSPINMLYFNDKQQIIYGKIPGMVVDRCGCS
Set-up: key: *: No observed binding; −−: <⅕ WT binding; −: ~½ WT binding; +: WT; ++: <2x increased binding; +++: ~5x increased binding; ++++: ~10x increased binding; +++++: ~40x increased binding. Conditions: Table 11, reproduced from WO2006/012627; cited from earlier work.

B1: +15tail: soluble ActRIIB-Fc variant with the 15 amino acid tail, as reported in WO2006/012627 (protein)
chain: SGRGEAETRECIYYNANWELERTNQSGLERCEGEQDKRLHCYASWANSSGTIELVKKGCWLDDFNCYDRQECVATEENPQVYFCCCEGNFCNERFTHLPEAGGPEVTYEPPPTAPT
modifications: left off: a dimerising Fc or GST
Regarding B1, in the data set with ActA, the “ActA binding relative to WT” value is reported as “(+++) (~5x increased binding)”. Also, the “GDF11 binding relative to WT” value with GDF11 is reported as “(++++) (~10x increased binding)”.

B2: K74Y: soluble ActRIIB-Fc variant, as reported in WO2006/012627 (protein)
chain: SGRGEAETRECIYYNANWELERTNQSGLERCEGEQDKRLHCYASWANSSGTIELVYKGCWLDDFNCYDRQECVATEENPQVYFCCCEGNFCNERFTHLPEA
modifications: left off: a dimerising Fc or GST
In the case of B2, in the data set with ActA, the “ActA binding relative to WT” value was “*” and the “ratio of activin A (ActA) binding to GDF11 binding, relative to the wild-type K74 molecule” value (from here on “ratio … relative to the wild-type K74 molecule”) is listed as “decrease”. Moreover, the “GDF11 binding relative to WT” value with GDF11 is given as “−− (<⅕ WT binding)”.

B3: D80I: soluble ActRIIB-Fc variant, as reported in WO2006/012627 (protein)
chain: SGRGEAETRECIYYNANWELERTNQSGLERCEGEQDKRLHCYASWANSSGTIELVKKGCWLIDFNCYDRQECVATEENPQVYFCCCEGNFCNERFTHLPEA
modifications: left off: a dimerising Fc or GST
As for B3, in the data set with ActA, the “ActA binding relative to WT” value was “*” and the “ratio … relative to the wild-type K74 molecule” value is recorded as “decrease”. Further, the “GDF11 binding relative to WT” value with GDF11 was “−− (<⅕ WT binding)”.

B4: L79A: soluble ActRIIB-Fc variant, as reported in WO2006/012627 (protein)
chain: SGRGEAETRECIYYNANWELERTNQSGLERCEGEQDKRLHCYASWANSSGTIELVKKGCWADDFNCYDRQECVATEENPQVYFCCCEGNFCNERFTHLPEA
modifications: left off: a dimerising Fc or GST
For the molecule B4, the “ActA binding relative to WT” value in the data set with ActA was “+”. Also, the “GDF11 binding relative to WT” value with GDF11 is “*”.

B5: K74A: soluble ActRIIB-Fc variant, as reported in WO2006/012627 (protein)
chain: SGRGEAETRECIYYNANWELERTNQSGLERCEGEQDKRLHCYASWANSSGTIELVAKGCWLDDFNCYDRQECVATEENPQVYFCCCEGNFCNERFTHLPEA
modifications: left off: a dimerising Fc or GST
On to B5, for which the “ActA binding relative to WT” value with ActA is listed as “+++++ (~40x increased binding)”.

B6: E37A: soluble ActRIIB-Fc variant, as reported in WO2006/012627 (protein)
chain: SGRGEAETRECIYYNANWALERTNQSGLERCEGEQDKRLHCYASWANSSGTIELVKKGCWLDDFNCYDRQECVATEENPQVYFCCCEGNFCNERFTHLPEA
modifications: left off: a dimerising Fc or GST
B6: in the data set with ActA, the “ActA binding relative to WT” value is on record as “*”. In addition, the “GDF11 binding relative to WT” value with GDF11 was “*”.

B7: W78A: soluble ActRIIB-Fc variant, as reported in WO2006/012627 (protein)
chain: SGRGEAETRECIYYNANWELERTNQSGLERCEGEQDKRLHCYASWANSSGTIELVKKGCALDDFNCYDRQECVATEENPQVYFCCCEGNFCNERFTHLPEA
modifications: left off: a dimerising Fc or GST
For B7, the “ActA binding relative to WT” value with ActA is given as “*”. For the same molecule, the “GDF11 binding relative to WT” value with GDF11 was “*”.

B8: WT (64R): soluble ActRIIB-Fc, wild type with 64R, as reported in WO2006/012627 (protein)
chain: SGRGEAETRECIYYNANWELERTNQSGLERCEGEQDKRLHCYASWRNSSGTIELVKKGCWLDDFNCYDRQECVATEENPQVYFCCCEGNFCNERFTHLPEA
modifications: left off: a dimerising Fc or GST
In the case of B8, the “GDF11 binding relative to WT” value in the data set with GDF11 is recorded as “(+++) (~5x increased binding)”.

B9: K74F: soluble ActRIIB-Fc variant, as reported in WO2006/012627 (protein)
chain: SGRGEAETRECIYYNANWELERTNQSGLERCEGEQDKRLHCYASWANSSGTIELVFKGCWLDDFNCYDRQECVATEENPQVYFCCCEGNFCNERFTHLPEA
modifications: left off: a dimerising Fc or GST
For the molecule B9, in the data set with ActA, the “ActA binding relative to WT” value is given as “*” and the “ratio … relative to the wild-type K74 molecule” value is reported as “decrease”. Also, the “GDF11 binding relative to WT” value with GDF11 is “−− (<⅕ WT binding)”.

B10: K74I: soluble ActRIIB-Fc variant, as reported in WO2006/012627 (protein)
chain: SGRGEAETRECIYYNANWELERTNQSGLERCEGEQDKRLHCYASWANSSGTIELVIKGCWLDDFNCYDRQECVATEENPQVYFCCCEGNFCNERFTHLPEA
modifications: left off: a dimerising Fc or GST
Regarding B10, in the data set with ActA, the “ActA binding relative to WT” value is given as “*” and the “ratio … relative to the wild-type K74 molecule” value is “decrease”. Also, in the data set with GDF11, the “GDF11 binding relative to WT” value is “−− (<⅕ WT binding)”.

B11: K55A: soluble ActRIIB-Fc variant, as reported in WO2006/012627 (protein)
chain: SGRGEAETRECIYYNANWELERTNQSGLERCEGEQDARLHCYASWANSSGTIELVKKGCWLDDFNCYDRQECVATEENPQVYFCCCEGNFCNERFTHLPEA
modifications: left off: a dimerising Fc or GST
Regarding B11, the “ActA binding relative to WT” value with ActA was “++ (<2x increased binding)”. Besides, in the data set with GDF11, the “GDF11 binding relative to WT” value was “*”.

B12: D54A: soluble ActRIIB-Fc variant, as reported in WO2006/012627 (protein)
chain: SGRGEAETRECIYYNANWELERTNQSGLERCEGEQAKRLHCYASWANSSGTIELVKKGCWLDDFNCYDRQECVATEENPQVYFCCCEGNFCNERFTHLPEA
modifications: left off: a dimerising Fc or GST
Take B12: the “ActA binding relative to WT” value with ActA is reported as “− (~½ WT binding)”. Also, the “GDF11 binding relative to WT” value with GDF11 is “*”.

B13: R40A: soluble ActRIIB-Fc variant, as reported in WO2006/012627 (protein)
chain: SGRGEAETRECIYYNANWELEATNQSGLERCEGEQDKRLHCYASWANSSGTIELVKKGCWLDDFNCYDRQECVATEENPQVYFCCCEGNFCNERFTHLPEA
modifications: left off: a dimerising Fc or GST
In the case of B13, in the data set with ActA, the “ActA binding relative to WT” value is “− (~½ WT binding)”. In addition, the “GDF11 binding relative to WT” value in the data set with GDF11 is “− (~½ WT binding)”.

B14: R56A: soluble ActRIIB-Fc variant, as reported in WO2006/012627 (protein)
chain: SGRGEAETRECIYYNANWELERTNQSGLERCEGEQDKALHCYASWANSSGTIELVKKGCWLDDFNCYDRQECVATEENPQVYFCCCEGNFCNERFTHLPEA
modifications: left off: a dimerising Fc or GST
Turning to B14, the “ActA binding relative to WT” value with ActA is “*”. The “GDF11 binding relative to WT” value with GDF11 was “*”.
